Experiment [1] has as its target 92-133 biotin labeled HCV core peptide (hepatitis C virus) (UniProt P26664). Briefly: EIA; Ab 500 ng/mL captured on anti-mouse Fc; bt-peptide 500 ng/mL.
In experiment [2] the target is C113T109N biotin labeled HCV core peptide (hepatitis C virus). The experiment is described as above.
The target in experiment [3] is Mut1T110N biotin labeled HCV core peptide (hepatitis C virus). The experiment is described as above.
In experiment [4] the target is Mut6T110S biotin labeled HCV core peptide (hepatitis C virus). The experiment is described as above.
For experiment [5], the target named is 92-133 biotin labeled HCV core peptide (hepatitis C virus) (UniProt P26664). Briefly: EIA; Ab 1000 ng/mL captured on anti-mouse Fc; bt-peptide 500 ng/mL.
Experiment [6] concerns the target C113T109N biotin labeled HCV core peptide (hepatitis C virus). Described as above.
The target in experiment [7] is Mut1T110N biotin labeled HCV core peptide (hepatitis C virus). Described as above.
For experiment [8], the target named is Mut6T110S biotin labeled HCV core peptide (hepatitis C virus). Described as above.
Experiment [9] addresses 92-133 biotin labeled HCV core peptide (hepatitis C virus) (UniProt P26664). The experiment can be described thus: EIA; Ab 0.977 ng/mL captured on anti-mouse Fc; bt-peptide 500 ng/mL.
Experiment [10] deals with C113T109N biotin labeled HCV core peptide (hepatitis C virus). The experiment is described as above.
The target of experiment [11] is 92-133 biotin labeled HCV core peptide (hepatitis C virus) (UniProt P26664). Briefly: EIA; Ab 31.25 ng/mL captured on anti-mouse Fc; bt-peptide 500 ng/mL.
In experiment [12] the target is C113T109N biotin labeled HCV core peptide (hepatitis C virus). The experiment is described as above.
For experiment [13], the target named is Mut1T110N biotin labeled HCV core peptide (hepatitis C virus). The experiment is described as above.
Experiment [14] deals with Mut6T110S biotin labeled HCV core peptide (hepatitis C virus). The experiment is described as above.
Experiment [15] concerns the target 92-133 biotin labeled HCV core peptide (hepatitis C virus) (UniProt P26664). The experiment can be described thus: EIA; Ab 15.625 ng/mL captured on anti-mouse Fc; bt-peptide 500 ng/mL.
For experiment [16], the target named is C113T109N biotin labeled HCV core peptide (hepatitis C virus). The description is as above.
Experiment [17] addresses Mut1T110N biotin labeled HCV core peptide (hepatitis C virus). Described as above.
The target in experiment [18] is Mut6T110S biotin labeled HCV core peptide (hepatitis C virus). The experiment is described as above.

For HCV C11-3 monoclonal antibody, the signal at 492 nm in experiment [1] came to 1.95 OD 492 nm; in experiment [2] it was 0.0882 OD 492 nm; in [3] it was 0.0765 OD 492 nm; in experiment [4], 2.24 OD 492 nm; in experiment [5] it was 1.87 OD 492 nm; in [6] it was 0.0806 OD 492 nm. The signal at 492 nm in [7] came out at 0.0721 OD 492 nm; in experiment [8] it was 2.15 OD 492 nm; in experiment [9] it was 0.116 OD 492 nm; in [10], 0.104 OD 492 nm; in [11], 1.55 OD 492 nm; in experiment [12] it was 0.16 OD 492 nm. Moreover, the signal at 492 nm in experiment [13] was determined as 0.107 OD 492 nm; in experiment [14], 1.54 OD 492 nm; in [15], 1.01 OD 492 nm; in experiment [16] it was 0.116 OD 492 nm; in experiment [17] it was 0.11 OD 492 nm; in experiment [18], 0.807 OD 492 nm.

Source of the values: US20170052184A1.
